Measured values reported in PMC9482650, “Quantitative fragmentomics allow affinity mapping of interactomes” (Nature Communications, 2022).

Columns and labels:
Test in all cases: holdup assay
Parameters in all cases: key: below the threshold = too weak to quantify, mostly under pKd 3.1 to 4
[1] = target: PTPN3, P26045; conditions: plain residues with an end cap or a label only (N-terminal biotin on a linker: ado-ado)
[2] = target: T1, LIN7B, Q9HAP6; conditions: plain residues with an end cap or a label only (N-terminal biotin on a linker: ado-ado)
T1 sequence (Q9HAP6 88-185, limits assumed, looked up): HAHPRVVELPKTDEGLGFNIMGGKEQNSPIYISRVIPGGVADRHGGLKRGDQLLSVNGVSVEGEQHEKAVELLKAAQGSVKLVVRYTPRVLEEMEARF

[3] = target: T2, SYNJ2BP, P57105
T2 sequence (P57105 8-110, limits assumed, looked up): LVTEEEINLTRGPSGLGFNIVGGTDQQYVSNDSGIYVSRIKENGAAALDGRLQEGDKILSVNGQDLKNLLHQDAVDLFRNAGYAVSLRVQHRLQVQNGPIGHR

[4] = target: T3, DFNB31_3, Q9P202; conditions: plain residues with an end cap or a label only (N-terminal biotin on a linker: ado-ado)
T3 sequence (Q9P202 811-907, limits assumed, looked up): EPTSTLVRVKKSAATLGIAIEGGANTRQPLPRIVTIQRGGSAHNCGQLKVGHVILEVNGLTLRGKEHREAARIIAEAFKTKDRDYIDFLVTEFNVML

[5] = target: T4, MPP6, Q9NZW5; conditions: plain residues with an end cap or a label only (N-terminal biotin on a linker: ado-ado)
T4 sequence (Q9NZW5 125-219, limits assumed, looked up): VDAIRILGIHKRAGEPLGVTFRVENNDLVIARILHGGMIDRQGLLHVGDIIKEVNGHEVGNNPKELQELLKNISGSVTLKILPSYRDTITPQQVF

[6] = target: T5, LIN7C, Q9NUP9; conditions: plain residues with an end cap or a label only (N-terminal biotin on a linker: ado-ado)
T5 sequence (Q9NUP9 88-185, limits assumed, looked up): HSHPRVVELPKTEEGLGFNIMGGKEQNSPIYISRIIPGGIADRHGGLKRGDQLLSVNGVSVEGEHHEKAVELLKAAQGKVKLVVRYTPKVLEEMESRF

[7] = target: T6, TIAM2, Q8IVF5
T6 sequence (Q8IVF5 885-986, limits assumed, looked up): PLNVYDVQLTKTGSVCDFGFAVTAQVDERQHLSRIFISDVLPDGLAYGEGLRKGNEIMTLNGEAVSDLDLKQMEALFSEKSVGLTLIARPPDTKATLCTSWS

[8] = target: T7, HTRA3, P83110; conditions: plain residues with an end cap or a label only (N-terminal biotin on a linker: ado-ado)
T7 sequence (P83110 354-453, limits assumed, looked up): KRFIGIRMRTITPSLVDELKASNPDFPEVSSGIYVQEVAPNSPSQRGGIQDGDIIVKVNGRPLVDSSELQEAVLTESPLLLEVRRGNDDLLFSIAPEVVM

[9] = target: NHERF4_1, Q86UT5-2; conditions: plain residues with an end cap or a label only (N-terminal biotin on a linker: ado-ado)
[10] = target: GRID2IP_2, A4D2P6
[11] = target: GIPC2, Q8TF65
[12] = target: DLG2_3, Q15700; conditions: plain residues with an end cap or a label only (N-terminal biotin on a linker: ado-ado)
[13] = target: MAST1, Q9Y2H9
[14] = target: MAGI1_2, Q96QZ7
[15] = target: T8, PDZD7_3, Q9H5P4; conditions: plain residues with an end cap or a label only (N-terminal biotin on a linker: ado-ado)
T8 sequence (Q9H5P4 857-944, limits assumed, looked up): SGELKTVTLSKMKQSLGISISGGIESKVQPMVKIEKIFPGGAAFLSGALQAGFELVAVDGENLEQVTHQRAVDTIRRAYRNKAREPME

[16] = target: APBA3_1, O96018; conditions: plain residues with an end cap or a label only
[17] = target: LNX1_1, Q8TBB1
[18] = target: DLG1_2, Q12959; conditions: plain residues with an end cap or a label only (N-terminal biotin on a linker: ahx)
[19] = target: DLG2_2, Q15700
[20] = target: NOS1, P29475; conditions: plain residues with an end cap or a label only (N-terminal biotin on a linker: ahx)
[21] = target: MAGI2_5, Q86UL8; conditions: plain residues with an end cap or a label only (N-terminal biotin on a linker: ahx)
[22] = target: IL16_1, Q14005; conditions: plain residues with an end cap or a label only (N-terminal biotin on a linker: ahx)
[23] = target: ARHGEF12, Q9NZN5-2; conditions: plain residues with an end cap or a label only (N-terminal biotin on a linker: ahx)
[24] = target: MAGI2_6, Q86UL8; conditions: plain residues with an end cap or a label only (N-terminal biotin on a linker: ahx)
[25] = target: GRASP, Q7Z6J2; conditions: plain residues with an end cap or a label only (N-terminal biotin on a linker: ahx)
[26] = target: Inadl_10, Q8NI35; conditions: plain residues with an end cap or a label only (N-terminal biotin on a linker: ahx)
[27] = target: HTRA1, Q92743
[28] = target: T9, ARHGEF11, O15085; conditions: plain residues with an end cap or a label only (N-terminal biotin on a linker: ahx)
T9 sequence (O15085 42-136, limits assumed, looked up): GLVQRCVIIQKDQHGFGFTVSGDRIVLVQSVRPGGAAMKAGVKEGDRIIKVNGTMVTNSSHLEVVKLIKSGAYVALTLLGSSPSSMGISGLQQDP

[29] = target: T10, APBA1_2, Q02410; conditions: plain residues with an end cap or a label only (N-terminal biotin on a linker: ahx)
T10 sequence (Q02410 742-832, limits assumed, looked up): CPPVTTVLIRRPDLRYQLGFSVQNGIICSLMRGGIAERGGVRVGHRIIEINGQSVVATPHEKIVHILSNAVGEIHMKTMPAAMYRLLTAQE

[30] = target: T11, DLG3_1, Q92796; conditions: plain residues with an end cap or a label only (N-terminal biotin on a linker: ado-ado)
T11 sequence (Q92796 125-227, limits assumed, looked up): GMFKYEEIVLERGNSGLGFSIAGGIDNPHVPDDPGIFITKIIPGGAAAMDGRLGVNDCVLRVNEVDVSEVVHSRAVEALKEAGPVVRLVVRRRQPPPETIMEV

[31] = target: FRMPD2_1, Q68DX3; conditions: plain residues with an end cap or a label only (N-terminal biotin on a linker: ado-ado)
[32] = target: IL16_3, Q14005; conditions: plain residues with an end cap or a label only (N-terminal biotin on a linker: ado-ado)
[33] = target: TJP2_1, Q9UDY2; conditions: plain residues with an end cap or a label only (N-terminal biotin on a linker: ado-ado)
[34] = target: T12, SHANK1, Q9Y566; conditions: plain residues with an end cap or a label only (N-terminal biotin on a linker: ado-ado)
T12 sequence (Q9Y566 658-767, limits assumed, looked up): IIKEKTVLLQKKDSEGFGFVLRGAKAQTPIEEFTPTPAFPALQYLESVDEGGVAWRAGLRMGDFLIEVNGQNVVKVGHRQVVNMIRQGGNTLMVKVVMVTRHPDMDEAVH

[35] = target: GORASP2, Q9H8Y8; conditions: plain residues with an end cap or a label only (N-terminal biotin on a linker: ado-ado)
[36] = target: DLG4_2, P78352; conditions: plain residues with an end cap or a label only (N-terminal biotin on a linker: ado-ado)
[37] = target: T13, MPDZ_10, O75970; conditions: plain residues with an end cap or a label only (N-terminal biotin on a linker: ado-ado)
T13 sequence (O75970 1624-1722, limits assumed, looked up): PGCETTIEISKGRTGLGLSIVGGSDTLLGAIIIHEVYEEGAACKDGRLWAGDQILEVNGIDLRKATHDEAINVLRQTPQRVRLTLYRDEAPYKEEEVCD

[38] = target: DLG1_3, Q12959; conditions: plain residues with an end cap or a label only (N-terminal biotin on a linker: ado-ado)
[39] = target: TJP1_3, Q07157; conditions: plain residues with an end cap or a label only (N-terminal biotin on a linker: ado-ado)
[40] = target: T14, MPDZ_12, O75970; conditions: plain residues with an end cap or a label only (N-terminal biotin on a linker: ado-ado)
T14 sequence (O75970 1857-1958, limits assumed, looked up): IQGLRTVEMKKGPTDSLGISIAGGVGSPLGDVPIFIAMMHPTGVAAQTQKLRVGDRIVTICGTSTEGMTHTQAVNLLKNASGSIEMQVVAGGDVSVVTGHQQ

[41] = target: T15, GRIP1_5, Q9Y3R0; conditions: plain residues with an end cap or a label only (N-terminal biotin on a linker: ado-ado)
T15 sequence (Q9Y3R0 568-668, limits assumed, looked up): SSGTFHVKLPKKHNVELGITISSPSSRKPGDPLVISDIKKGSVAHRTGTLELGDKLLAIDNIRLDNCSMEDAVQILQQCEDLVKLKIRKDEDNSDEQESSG

[42] = target: T16, ARHGAP21, Q5T5U3; conditions: plain residues with an end cap or a label only (N-terminal biotin on a linker: ado-ado)
T16 sequence (Q5T5U3 45-169, limits assumed, looked up): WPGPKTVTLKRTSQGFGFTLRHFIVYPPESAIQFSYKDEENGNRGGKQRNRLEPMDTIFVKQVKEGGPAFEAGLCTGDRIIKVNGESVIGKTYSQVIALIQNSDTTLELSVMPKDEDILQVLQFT

[43] = plain residues with an end cap or a label only (N-terminal biotin on a linker: ado-ado)
[44] = plain residues with an end cap or a label only (N-terminal biotin on a linker: ahx)

Sequence of MAST1, Q9Y2H9 (Q9Y2H9 962-1065): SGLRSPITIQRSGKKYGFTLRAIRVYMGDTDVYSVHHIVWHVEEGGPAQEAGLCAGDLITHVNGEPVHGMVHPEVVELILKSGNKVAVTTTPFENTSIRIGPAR
Sequence of LNX1_1, Q8TBB1 (Q8TBB1 261-371): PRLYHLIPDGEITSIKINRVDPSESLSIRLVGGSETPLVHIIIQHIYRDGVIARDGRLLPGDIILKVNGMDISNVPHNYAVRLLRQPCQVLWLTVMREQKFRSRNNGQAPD
Sequence of GRID2IP_2, A4D2P6 (A4D2P6 272-370): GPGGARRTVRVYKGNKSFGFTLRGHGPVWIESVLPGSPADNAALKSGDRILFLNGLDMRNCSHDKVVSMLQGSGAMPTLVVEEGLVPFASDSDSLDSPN
Sequence of MAGI1_2, Q96QZ7 (Q96QZ7 456-580): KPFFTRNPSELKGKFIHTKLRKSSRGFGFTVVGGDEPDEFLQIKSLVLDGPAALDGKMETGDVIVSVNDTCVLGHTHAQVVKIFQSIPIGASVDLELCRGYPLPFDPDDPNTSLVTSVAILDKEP
Sequence of GIPC2, Q8TF65 (Q8TF65 112-203): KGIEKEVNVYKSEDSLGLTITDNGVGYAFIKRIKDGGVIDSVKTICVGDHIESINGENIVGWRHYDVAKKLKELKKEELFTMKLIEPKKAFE
Sequence of HTRA1, Q92743 (Q92743 360-477): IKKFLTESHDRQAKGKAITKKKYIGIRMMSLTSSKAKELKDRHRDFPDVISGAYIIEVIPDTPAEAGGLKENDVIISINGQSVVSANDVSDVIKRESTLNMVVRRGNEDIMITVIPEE
Sequence of NHERF4_1, Q86UT5-2 (Q86UT5 other isoform, or with tags, fused parts or gaps): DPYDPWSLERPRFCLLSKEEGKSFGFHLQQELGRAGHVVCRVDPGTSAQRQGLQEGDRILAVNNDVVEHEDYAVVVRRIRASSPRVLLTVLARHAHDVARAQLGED
Sequence of IL16_3, Q14005 (Q14005 1107-1207): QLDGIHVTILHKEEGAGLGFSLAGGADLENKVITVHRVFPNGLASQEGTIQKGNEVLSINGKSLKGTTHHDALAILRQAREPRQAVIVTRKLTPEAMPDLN
Sequence of DLG1_3, Q12959 (Q12959 457-571): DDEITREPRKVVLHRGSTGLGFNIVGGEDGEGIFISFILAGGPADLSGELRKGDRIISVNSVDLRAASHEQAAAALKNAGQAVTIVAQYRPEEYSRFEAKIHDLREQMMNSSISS
Sequence of FRMPD2_1, Q68DX3 (Q68DX3 770-861): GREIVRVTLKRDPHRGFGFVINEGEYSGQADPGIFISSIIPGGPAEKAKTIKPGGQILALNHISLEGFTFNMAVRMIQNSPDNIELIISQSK
Sequence of APBA3_1, O96018 (O96018 other isoform, or with tags, fused parts or gaps): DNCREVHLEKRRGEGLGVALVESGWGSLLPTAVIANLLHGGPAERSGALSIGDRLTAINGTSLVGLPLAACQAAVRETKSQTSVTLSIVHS
Sequence of ARHGEF12, Q9NZN5-2 (Q9NZN5 other isoform, or with tags, fused parts or gaps): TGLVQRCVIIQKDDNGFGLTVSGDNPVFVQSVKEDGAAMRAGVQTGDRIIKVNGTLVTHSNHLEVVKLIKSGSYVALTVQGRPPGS
Sequence of TJP1_3, Q07157 (Q07157 416-512): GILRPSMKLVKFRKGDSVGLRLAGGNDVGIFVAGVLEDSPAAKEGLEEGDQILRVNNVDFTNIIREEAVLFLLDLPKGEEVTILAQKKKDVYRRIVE
Sequence of Inadl_10, Q8NI35 (Q8NI35 1673-1763): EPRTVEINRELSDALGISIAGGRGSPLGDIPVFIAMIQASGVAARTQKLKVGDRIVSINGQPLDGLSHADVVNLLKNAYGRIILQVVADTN
Sequence of MAGI2_5, Q86UL8 (Q86UL8 915-1017): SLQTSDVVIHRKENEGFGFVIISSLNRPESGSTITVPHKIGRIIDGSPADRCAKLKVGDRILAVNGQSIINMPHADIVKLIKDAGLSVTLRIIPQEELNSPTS
Sequence of TJP2_1, Q9UDY2 (Q9UDY2 24-128): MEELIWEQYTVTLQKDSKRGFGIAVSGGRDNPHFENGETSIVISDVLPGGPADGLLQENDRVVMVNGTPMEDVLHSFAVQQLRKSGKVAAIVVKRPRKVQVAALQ
Sequence of GRASP, Q7Z6J2 (Q7Z6J2 96-193): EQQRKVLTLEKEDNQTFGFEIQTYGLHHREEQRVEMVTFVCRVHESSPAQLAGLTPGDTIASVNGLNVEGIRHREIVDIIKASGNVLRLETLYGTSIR
Sequence of NOS1, P29475 (P29475 9-101): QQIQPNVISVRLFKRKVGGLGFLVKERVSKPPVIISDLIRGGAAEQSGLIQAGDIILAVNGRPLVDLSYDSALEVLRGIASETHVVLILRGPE
Sequence of PTPN3, P26045 (P26045 505-587): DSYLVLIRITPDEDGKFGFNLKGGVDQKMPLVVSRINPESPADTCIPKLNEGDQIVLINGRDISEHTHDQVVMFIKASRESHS
Sequence of DLG4_2, P78352 (P78352 155-259): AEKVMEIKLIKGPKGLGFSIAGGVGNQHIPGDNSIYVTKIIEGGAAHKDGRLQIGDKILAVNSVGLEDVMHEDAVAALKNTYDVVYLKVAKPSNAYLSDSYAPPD
Sequence of IL16_1, Q14005 (Q14005 210-306): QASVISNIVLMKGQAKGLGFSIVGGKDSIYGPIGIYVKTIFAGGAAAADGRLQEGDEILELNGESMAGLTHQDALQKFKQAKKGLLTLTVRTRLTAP
Sequence of MAGI2_6, Q86UL8 (Q86UL8 1141-1229): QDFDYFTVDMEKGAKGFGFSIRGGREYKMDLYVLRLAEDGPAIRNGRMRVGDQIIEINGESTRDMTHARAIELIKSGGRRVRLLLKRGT
Sequence of DLG1_2, Q12959 (Q12959 314-412): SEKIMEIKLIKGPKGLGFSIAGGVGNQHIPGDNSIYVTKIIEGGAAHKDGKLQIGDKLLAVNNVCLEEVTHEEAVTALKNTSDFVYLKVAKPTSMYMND

In the case of KSTTRSSSSC [NDE1, Q9NXR1], the pKd [1] is reported as 3.52, the pKd [2] is reported as 3.64 and the pKd [3, 43] is reported as 3.76. The pKd [4] was 3.75, the pKd [5] was 3.6 and the pKd [6] was 3.88. The pKd [7, 43] was 3.85, the pKd [8] was 3.74 and the pKd [9] was 3.85. The pKd [10, 43] was 3.59, the pKd [11, 43] was 3.64 and the pKd [12] was 3.58. It also gave a pKd [13, 43] of 3.61, a pKd [14, 43] of 3.71 and a pKd [15] of 3.73.

In the case of RRSQSPSANC [a stretch of P69709, P69709], the pKd [16] is reported as “below the threshold”.

Work on LCKSHAFSHV [PDLIM7, Q9NR12] yielded a pKd [17, 44] of 3.51, a pKd [18] of 3.48 and a pKd [19, 44] of 3.56. The pKd [20] was 3.48, the pKd [21] was 3.86 and the pKd [3, 44] was 3.7. For the same binder, the pKd [22] was 3.51, the pKd [23] was 3.55 and the pKd [24] was 3.61. For the same binder, the pKd [25] was 3.65, the pKd [7, 44] was 3.48 and the pKd [26] was 3.52. The pKd [27, 44] was 3.68, the pKd [10, 44] was 3.62 and the pKd [11, 44] was 3.67. It also gave a pKd [13, 44] of 3.75, a pKd [28] of 3.48 and a pKd [29] of 3.83. For the same binder, the pKd [14, 44] was 3.9.

For EYRKDNKVAA [LSM14A, Q8ND56], the pKd [17, 43] was 3.82, the pKd [30] was 3.55 and the pKd [31] was 3.68. It also gave a pKd [19, 43] of 3.54, a pKd [32] of 3.51 and a pKd [2] of 3.83. The pKd [33] was 3.57, the pKd [34] was 3.51 and the pKd [35] was 3.52. It also gave a pKd [36] of 3.71, a pKd [37] of 3.68 and a pKd [9] of 3.61. The pKd [27, 43] was 3.67, the pKd [38] was 3.64 and the pKd [12] was 3.88. The pKd [39] was 3.53, the pKd [40] was 3.68 and the pKd [41] was 3.6. The pKd [42] was 3.67.
